Test system: MS2 coat protein
Test: apparent KD of MS2 coat protein; designed switch direction (-1 OFF switch, 1 ON switch): -1; higher = weaker reporter binding
How it was run: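 Designed RNA switches sharing common flanks were transcribed on Illumina chips by stalled E. coli RNA polymerase. They were titrated with SNAP-549-labelled MS2 coat protein, from 0.7 or 1.5 nM doubling to 3 µM, in Tris-HCl pH 7.5 buffer with KCl, MgCl2, BSA, DTT, tRNA and Tween-20. Titrations ran without input, with 200 uM small-molecule ligand, or with an oligonucleotide input. The apparent KD of each design is the median over its clusters, after curve-fitting of normalised cluster fluorescence.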

[1] = Eterna round: R95, input ligand: microRNA oligo, concentration not stated
[2] = input ligand: microRNA oligo, concentration not stated
[3] = Eterna round: R95, input ligand: FMN 200 uM
[4] = Eterna round: R95, input ligand: none

Sequence	apparent KD of MS2 coat protein [1]	apparent KD of MS2 coat protein (input ligand: FMN 200 uM)	apparent KD of MS2 coat protein (input ligand: none)	also measured
CUUCGACAUGAGGAUCACCCAUGUCAGGAUAUUGUGUAUCGGGUUUUUUACGGAAAGGCGAGAAGGGAUGUGUG [LRO-Excl1-09] (puzzle: Exclusion 1)	22 nM	–	–	–
CUUCGUAAUGUCAGGAUAUUUUCGAGGGCAACUCAAAAGAAGGGACAUGAGGAUCACCCAUGUGGCAACGUCAU [Eternabot (L2) Solution 83] (Eterna round: R97, puzzle: Brourd's mod of Exclusion 4)	–	177 nM	51.9 nM	–
CUUCUGUGAGGAUAUGUUAGUUCCCAGCAAAUCGCUGGGAGACAGAAGGCACAUGAGGAUCACCCAUGUGGGCG [Vexeanra] (Eterna round: R96, puzzle: Exclusion 4)	–	612 nM	64.7 nM	apparent KD of MS2 coat protein [2]: 49.8 nM
CUUGAAUAAGUGAGGAUAUACUGUUAGUAAUGAUUGUAGAAGGUACAUGAGGAUCACCCAUGUUUAUUCAUAAU [JR_BME4_Sub041] (puzzle: Brourd's mod of Exclusion 4)	17.5 nM	–	–	–
CUUGUGUCAGGAUAUGCUAAGUAUUCGUUUUACGCGUCUAGGCAGAAGGGACAUGAGGAUCACCCAUGUAACGC [EX4 B.30] (Eterna round: R97, puzzle: Exclusion 4)	–	172 nM	133 nM	–
CUUGUUUAUGUAGGAUAUGCCUGGCGUGCCUUUGCAGAAGGACAUGAGGAUCACCCAUGUAGUAUGAGGCUUACCCUUGUCGCC [salish99_ExNG1_r04_120] (Eterna round: R96, puzzle: Exclusion NG 1)	–	–	–	apparent KD of MS2 coat protein [2]: 19.9 nM
CUUUACAAGCUAAGAUCCUACAUGAGGAUCACCCAUGUGGUCCGGUGACGUGAGUCACCGGACUUAGCUCGUCUUGC [salish99_S_TOV1_R5_094] (Eterna round: R97, puzzle: Sensor, turn-off variant 1)	–	31.2 nM	36.8 nM	–
CUUUACAAGCUAAGAUCCUACAUGAGGAUCACCCAUGUGGUCCGGUGACGUGAGUCACCGGACUUAGCUCGUCUUGG [salish99_S_TOV1_R5_095] (Eterna round: R97, puzzle: Sensor, turn-off variant 1)	–	30.1 nM	32.2 nM	–
CUUUCGUGAGGAUAUCAGUAGUAAAAAAAUAAAAUUACUACUGAGAAGGCACAUGAGGAUCACCCAUGUUCCUC [salish99_ex3_r3_097] (puzzle: Exclusion 4)	25.7 nM	–	–	–
CUUUUGUGAGGAUAUCAGUAGUAAAAAAAUAAAAUUUCUACUGAGAAGGCACAUGAGGAUCACCCAUGUUCCUC [salish99_ex4_r3_026] (puzzle: Exclusion 4)	34.5 nM	–	–	–
CUUUUGUGAGGAUAUCAGUAGUAAAUAAAUAAAUUAACUACUGAGAAGGCACAUGAGGAUCACCCAUGUUCCUU [Mat - Exclusion 4 - Mod of Salish - D65] (puzzle: Exclusion 4)	13.7 nM	–	–	–
CUUUUGUGAGGAUAUCAGUAGUAUAAAAUUAAAAUUACUACUGAGAAGGCACAUGAGGAUCACCCAUGUUCCUC [Mat - Exclusion 4 - Mod of Salish - D75] (puzzle: Exclusion 4)	36 nM	–	–	–
CUUUUGUGAGGAUAUUAGUAGUAAUUAAAUAAAAUUACUACUGAGAAGGCACAUGAGGAUCACCCAUGUUCCUC [salish99_ex4_r3_053] (puzzle: Exclusion 4)	35.9 nM	–	–	–
GAAAACGCAGAGGAUAUUUCAGAUCAAAGCUGCAAAGAAGGCUGCACAUGAGGAUCACCCAUGUGGUCUUCAAU [Mat - Exclusion 6 - JL Mod - D8] (Eterna round: R97, puzzle: Exclusion 6)	–	315 nM	25.8 nM	–
GAAAAGCUAGGAUAUACGAAAAAAAAGGGUAGAAAAAAAACACAUGAGGAUCACCCAUGUAGAAGGAGCAAAAG [salish99_ex2_r3_093] (puzzle: Exclusion 2)	51 nM	–	–	apparent KD of MS2 coat protein [3]: 102 nM; apparent KD of MS2 coat protein [4]: 48.2 nM
GAAAAGGUAGGAUAUACGAAAAAAAAGGGUAGAAAAAAAACACAUGAGGAUCACCCAUGUAGAAGGACCAAAAA [salish99_ex2_r3_050] (puzzle: Exclusion 2)	45 nM	–	–	apparent KD of MS2 coat protein [3]: 98.9 nM; apparent KD of MS2 coat protein [4]: 34.2 nM
GAAAAGGUAGGAUAUACGAAAAAAAAGGGUAGAAAAAAAACACAUGAGGAUCACCCAUGUAGAAGGACCAAAAU [salish99_ex2_r3_051] (puzzle: Exclusion 2)	29.2 nM	–	–	apparent KD of MS2 coat protein [3]: 76.9 nM; apparent KD of MS2 coat protein [4]: 26.7 nM
GAAAAGGUAGGAUAUACGAAAAAAAAGGGUAGGAAAAAAACACAUGAGGAUCACCCAUGUAGAAGGACCAAAAG [salish99_ex2_r3_024] (puzzle: Exclusion 2)	21.8 nM	–	–	apparent KD of MS2 coat protein [3]: 61.7 nM; apparent KD of MS2 coat protein [4]: 19.8 nM

Sequence	apparent KD of MS2 coat protein [1]	apparent KD of MS2 coat protein (input ligand: FMN 200 uM)	apparent KD of MS2 coat protein (input ligand: none)	also measured
GAAGAAGAGAGAAAAGAAAACAUGAGGAUCACCCAUGUGAGAAGAUGAGGGUGAUACAGGCUAUAUGCUCGUCUUAU (puzzle: Sensor v3, turn-off variant 1)	28.8 nM	–	–	apparent KD of MS2 coat protein [3]: 247 nM; apparent KD of MS2 coat protein [4]: 295 nM
GAAGUAUGAGUUAGGAUAUGAUGAUUUUUAUUAAAUCAGAAGGAACUUGAGGAUCACCCAAGUAAAGAAUUGGU [JR_BMEx4_Sub070] (Eterna round: R97, puzzle: Brourd's mod of Exclusion 4)	–	16.1 nM	15.6 nM	–
GAAUAGAGAGGAUAUGCGUAGUAGGUAGUAAGAUAUAUAUGACAUGAGGAUCACCCAUGUAGAAGGCUCAGAUA [EX2 #2] (Eterna round: R97, puzzle: Exclusion 2)	–	38.3 nM	35.8 nM	–
GAAUGAGAGCAGGAUAUCUUAUAAAUGUAUGAAAGAGAAGGGCUCACAUGAGGAUCACCCAUGUGGUCCUAAAU [jl-ex6-4.74 jandersonlee mod] (Eterna round: R97, puzzle: Exclusion 6)	–	286 nM	44.5 nM	–
GACAAGGGAGGAUAUGCACAAGGGAUAUCUGACAUGCCGUUACAUGAGGAUCACCCAUGUAGAAGGCCCGAAUA [Didiin] (puzzle: Exclusion 2)	13.3 nM	–	–	–
GACAAGGUGUAGGAUAUGCUUAGCCUUAAGAAAGCAGAAGGACAAACUUGAGGAUCACCCAAGUGGUCCAAACA [Diraveti] (Eterna round: R97, puzzle: Exclusion 6)	–	65.5 nM	19.6 nM	–
GACACCAAAGGAUAUACAUGAGGAUCACCCAUGUGCUGCAAAAGCUGAGCUCAAAUGUGUAGAAGGUUGAAAUA [Eternabot (Original) Solution 40] (Eterna round: R97, puzzle: Exclusion 3)	–	39 nM	31.6 nM	–
GACCAACGGGUUUACCUUUACAUGAGGAUCACCCAUGUCGCAAGCUUUUUCUCGGGUCCAAUCUUAUAAAUAUUAAU [Legedi] (puzzle: Sensor v3, turn-off variant 1)	314 nM	–	–	apparent KD of MS2 coat protein [3]: 144 nM; apparent KD of MS2 coat protein [4]: 179 nM
GACGUGUGAGGAUAUCCGAUGCCGGUCCGGAAGGUUCGGGUGGAGAAGGCACAUGAGGAUCACCCAUGUGUAAG [Excls4-VII] (puzzle: Exclusion 4)	16.4 nM	–	–	–
GACGUGUUAGGAUAUAGCUCUCGGGACAGCAAUGAUCCGAGUUAGAAGGAACAUGAGGAUCACCCAUGUUAUUU [Eternabot (L2) Solution 60] (Eterna round: R97, puzzle: Exclusion 4)	–	18.4 nM	21.1 nM	–
GACUAGGCAGGAUAUACAUGAGGAUCACCCAUGUGUCUGCGUUAAGCACGUGAAGACGGUAGAAGGGCCUUCAC [ChP 13.04.2015 #17] (puzzle: Exclusion 3)	10.3 nM	–	–	–
GACUGAAUUUUGUUUGGUUACAUGAGGAUCACCCAUGUUGGUCUAAGAACAUGUCUUUUGUACGCUUGUCUUAUAUA [JR_SV3TOV1_Sub069] (puzzle: Sensor v3, turn-off variant 1)	44.9 nM	–	–	apparent KD of MS2 coat protein [3]: 68.9 nM; apparent KD of MS2 coat protein [4]: 100 nM
GAGAAGGUAGGAUAUACGAAGAAAGAGGGUAGGAAGAAGACACAUGAGGAUCACCCAUGUAGAAGGACCAAGAG [Mat - Exclusion 2 - Mod of my Tesla design - D48] (puzzle: Exclusion 2)	13.9 nM	–	–	apparent KD of MS2 coat protein [3]: 27.1 nM; apparent KD of MS2 coat protein [4]: 14.1 nM
GAGAGAGCCAUAGGAUAUGCCCGCCCGCUUGCGGCAGAAGGAUGUUGACAUGAGGAUCACCCAUGUGGAUCGCCCAUGUUUGUG [All by luck] (Eterna round: R96, puzzle: Exclusion NG 1)	–	604 nM	286 nM	apparent KD of MS2 coat protein [2]: 191 nM
GAGAGCAACGUCAGGAUAUUUAACCAAAACGCGGUAGAGAAGGGACAUGAGGAUCACCCAUGUGACUUCGGGCA [Eternabot (L1) Solution 83] (Eterna round: R97, puzzle: Brourd's mod of Exclusion 4)	–	15.5 nM	16.8 nM	–
GAGCUGUGAGGAUAUACAUGAGGAUCACCCAUGUAAUGGUAGUCGGGAUUAAUUUGGUGUAGAAGGCGCUUAUU [JR_Ex3_Sub020] (Eterna round: R97, puzzle: Exclusion 3)	–	41 nM	46 nM	–
GAGGAUAGAGGAUAUGCAUAGAUACGGAUUCGUGUAGUACUACAUGAGGAUCACCCAUGUAGAAGGCUGUCCAG [Mat - Exclusion 2 - Mod of JL - D75] (puzzle: Exclusion 2)	12.8 nM	–	–	–
GAGGCAUGCCUAGGUCCACACAUGAGGAUCACCCAUGUAAUGACAGGCUUUUUACUCGUUUUAUCGCUAUCGCGUUC [Enaor] (puzzle: Sensor v3, turn-off variant 1)	20.7 nM	–	–	apparent KD of MS2 coat protein [3]: 13.2 nM; apparent KD of MS2 coat protein [4]: 11.8 nM
